The text below walks through data of publication doi:10.1101/2020.06.25.170399 (bioRxiv, 2020).

The target in this experiment is T1, γ subunit of human NAD-dependent isocitrate dehydrogenase (IDH3) (human, UniProt P51553 40-393).
T1 sequence: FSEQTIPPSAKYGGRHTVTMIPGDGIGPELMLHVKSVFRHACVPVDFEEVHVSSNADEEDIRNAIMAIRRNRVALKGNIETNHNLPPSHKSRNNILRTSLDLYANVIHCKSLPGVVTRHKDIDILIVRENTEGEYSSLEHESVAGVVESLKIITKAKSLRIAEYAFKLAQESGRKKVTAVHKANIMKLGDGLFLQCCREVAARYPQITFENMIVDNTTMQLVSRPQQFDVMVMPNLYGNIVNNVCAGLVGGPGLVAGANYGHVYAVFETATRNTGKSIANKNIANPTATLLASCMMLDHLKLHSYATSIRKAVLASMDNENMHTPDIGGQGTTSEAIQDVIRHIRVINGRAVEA
The experiment is described as follows: SEC-MALS. For orientation: Size exclusion chromatography separates by hydrodynamic size, large species first.

B1: α subunit of human NAD-dependent isocitrate dehydrogenase (IDH3) (natural protein)
chain: TGGVQTVTLIPGDGIGPEISAAVMKIFDAAKAPIQWEERNVTAIQGPGGKWMIPSEAKESMDKNKMGLKGPLKTPIAAGHPSMNLLLRKTFDLYANVRPCVSIEGYKTPYTDVNIVTIRENTEGEYSGIEHVIVDGVVQSIKLITEGASKRIAEFAFEYARNNHRSNVTAVHKANIMRMSDGLFLQKCREVAESCKDIKFNEMYLDTVCLNMVQDPSQFDVLVMPNLYGDILSDLCAGLIGGLGVTPSGNIGANGVAIFESVHGTAPDIAGKDMANPTALLLSAVMMLRHMGLFDHAARIEAACFATIKDGKSLTKDLGGNAKCSDFTEEICRRVKDLD
Consider B1, for which the binding result is listed as “binds”.
